In patent publication US20230303690A1 (published 2023):

T1: LAG3 Protein, Human, Recombinant (His Tag) (Sino Biological Catalog No. 16498-H08H) (human, UniProt P18627 23-450)
T1 construct: Bought protein; also called hLAG3-His; LAG3-His; not shown: His tag
T1 sequence (looked up): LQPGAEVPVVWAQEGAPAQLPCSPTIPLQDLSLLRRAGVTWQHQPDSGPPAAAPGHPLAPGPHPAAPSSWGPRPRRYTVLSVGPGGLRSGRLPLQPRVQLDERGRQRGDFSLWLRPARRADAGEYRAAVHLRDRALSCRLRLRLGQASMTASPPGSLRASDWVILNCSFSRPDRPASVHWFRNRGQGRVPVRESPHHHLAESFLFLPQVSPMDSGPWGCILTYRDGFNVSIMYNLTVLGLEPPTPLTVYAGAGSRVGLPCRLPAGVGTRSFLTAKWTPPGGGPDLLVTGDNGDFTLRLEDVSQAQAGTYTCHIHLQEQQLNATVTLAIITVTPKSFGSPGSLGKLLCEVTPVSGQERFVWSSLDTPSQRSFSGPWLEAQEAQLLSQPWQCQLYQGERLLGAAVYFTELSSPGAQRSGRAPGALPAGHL

T2: human LAG3 expressed on cells (human, UniProt P18627 23-525)
T2 sequence (looked up): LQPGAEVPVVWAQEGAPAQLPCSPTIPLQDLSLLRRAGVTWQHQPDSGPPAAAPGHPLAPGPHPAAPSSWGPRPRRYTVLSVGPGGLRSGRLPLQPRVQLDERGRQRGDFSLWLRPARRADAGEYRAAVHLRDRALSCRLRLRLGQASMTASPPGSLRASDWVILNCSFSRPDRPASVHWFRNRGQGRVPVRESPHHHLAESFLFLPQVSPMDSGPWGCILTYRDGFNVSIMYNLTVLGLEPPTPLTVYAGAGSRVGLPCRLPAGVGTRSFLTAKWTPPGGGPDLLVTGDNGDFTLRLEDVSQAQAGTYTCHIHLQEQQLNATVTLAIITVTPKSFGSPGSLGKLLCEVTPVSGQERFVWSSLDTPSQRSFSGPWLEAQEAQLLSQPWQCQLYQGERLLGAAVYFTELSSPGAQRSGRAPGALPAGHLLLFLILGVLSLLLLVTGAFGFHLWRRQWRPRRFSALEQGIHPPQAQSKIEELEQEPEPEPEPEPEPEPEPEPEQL

B1: sdAb No. 27 (VHH)
VHH: QVQLVESGGGLVQPGGSLRLSCAASGFTLDYYAIGWFRQAPGKEREGVSCIRSSDGSTYYADSVKGRFTISSDNTKNTVYLQMNSLKPEDTAVYYCATDRYSDCRGPYENWGQGTQVTVSS
notes: Fc of the tested form not described; also called sdAb 27; not shown: Fc part implied by anti-human Fc capture and anti-human IgG Fc detection
B2: sdAb No. 17 (VHH)
VHH: QLQLVESGGGLVQPGGSLRLSCAASGLTLDGYAIGWFRQAPGKEREGLACISGSDGSTHYLDSVKGRFTISRDNGKNTMALQMNSLQFGDTAIYYCAARRGSCSGSWTYWGQGTQVTVSS
notes: Fc of the tested form not described; also called sdAb 17; not shown: Fc part implied by anti-human Fc capture and anti-human IgG1 Fc detection
B3: sdAb No. 25 (VHH)
VHH: QLQLVESGGGLVQAGGSLRLSCAASGSIESFSFMGWYRQAPGKQRELVAGFTGAASLSFSTYTDAVKGRFTISRDNAKNTVYLQMNSLKPEDTAVYFCNVDPWSQSWPGRYWGQGTQVTVSS
notes: Fc of the tested form not described; also called sdAb 25; sdAb #25; not shown: Fc part implied by anti-human Fc capture and anti-human IgG Fc detection

Legend:
[1] = biological target: T1, LAG3 Protein, Human, Recombinant (His …); experiment: SPR binning on LAG3-His; competitor 27
Experimental: (§1) The chip surface was regenerated after each cycle with 25 mM NaOH followed by HBS-EP wash provided in the kit.

[2] = biological target: T1, LAG3 Protein, Human, Recombinant (His …); experiment: SPR (Biacore), sdAb captured by anti-human Fc, LAG3-His analyte
Experimental: The binding of the single domain antibodies to recombinant human LAG3 protein (rhLAG3) was examined by Biacore™ assay. […] The coating was carried out according to the manufacturer’s instructions accompanying the kit (Catalog No. BR-1008-39, GE). […] The chip surface was regenerated after each cycle with 25 mM NaOH followed by HBS-EP wash provided in the kit.

[3] = biological target: T1, LAG3 Protein, Human, Recombinant (His …); experiment: SPR binning on LAG3-His; competitor 21
Experimental: as §1

[4] = biological target: T1, LAG3 Protein, Human, Recombinant (His …); experiment: SPR binning on LAG3-His; competitor 1
Experimental: as §1

[5] = biological target: T1, LAG3 Protein, Human, Recombinant (His …); experiment: SPR binning on LAG3-His; competitor 17
Experimental: as §1

[6] = biological target: T1, LAG3 Protein, Human, Recombinant (His …); experiment: SPR binning on LAG3-His; competitor 37
Experimental: as §1

[7] = biological target: T1, LAG3 Protein, Human, Recombinant (His …); experiment: SPR binning on LAG3-His; competitor 24
Experimental: as §1

[8] = biological target: T1, LAG3 Protein, Human, Recombinant (His …); experiment: SPR binning on LAG3-His; competitor 73
Experimental: as §1

[9] = biological target: T2, human LAG3 expressed on cells; experiment: cell-based or functional assay
[10] = biological target: T2, human LAG3 expressed on cells; experiment: cell-based or functional assay; remark: listed apart in the source
[11] = biological target: T1, LAG3 Protein, Human, Recombinant (His …); experiment: SPR binning on LAG3-His; competitor 18
Experimental: as §1

[12] = biological target: T1, LAG3 Protein, Human, Recombinant (His …); experiment: SPR binning on LAG3-His; competitor 20
Experimental: as §1

[13] = biological target: T1, LAG3 Protein, Human, Recombinant (His …); experiment: SPR binning on LAG3-His; competitor BMS
Experimental: as §1

[14] = biological target: T1, LAG3 Protein, Human, Recombinant (His …); experiment: SPR binning on LAG3-His; competitor 25
Experimental: as §1

Row | RU [1] [RU] | koff [2] [s⁻¹] | kon [2] [M⁻¹ s⁻¹] | RU [3] [RU] | RU [4] [RU] | RU [5] [RU] | RU [6] [RU] | RU [7] [RU] | RU [8] [RU] | IL-2, % of BMS, at 0.005080526 ug/mL [9] [%] | IL-2, % of BMS, at 0.015241579 ug/mL [9] [%] | IL-2, % of BMS, at 0.045724737 ug/mL [9] [%] | IL-2, % of BMS, at 0.137174211 ug/mL [9] [%] | IL-2, % of BMS, at 0.411522634 ug/mL [9] [%] | IL-2, % of BMS, at 1.234567901 ug/mL [9] [%] | IL-2, % of BMS, at 3.703703704 ug/mL [9] [%] | IL-2, % of BMS, at 11.11111111 ug/mL [9] [%] | IL-2, % of BMS, at 33.33333333 ug/mL [9] [%] | IL-2, % of BMS, at 100 ug/mL [9] [%] | EC50 for IL-2 rescue, hLAG3 Jurkat T system [10] [nM] | also measured | Binder
1 | -6.2 | 4.09e-07 | 1.17e+07 | -10.1 | -9.1 | -11.7 | -9.1 | -10.1 | -15.1 | 5.57 | 13.4 | 12.1 | 18 | 27.3 | 36.5 | 43.4 | 50 | 52.9 | 52.8 | 8.49 | Efficacy (IL-2 production, BMS = 100%) [10]: 50.2%; RU [11]: -9.6 RU; RU [12]: -11.7 RU; RU [13]: 48.2 RU; RU [14]: 34 RU | B1
2 | -7 | 0.0012 | 6.6e+06 | -12.5 | -13.6 | -2 | -13.4 | -10.4 | -17 | 5.97 | 9.56 | 9.97 | 18 | 22.3 | 26.5 | 31.4 | 38 | 38 | 42.2 | 7.72 | Kd [2]: 0.181 nM; Efficacy (IL-2 production, BMS = 100%) [10]: 46.5%; RU [11]: -7.5 RU; RU [12]: -14.6 RU; RU [13]: 15.2 RU; RU [14]: 17.9 RU | B2
3 | 50.9 | 0.000108 | 6.31e+06 | 49.3 | 44.7 | 41 | 44.1 | 46.4 | 47.6 | 3.24 | -0.59 | 8.03 | 2.39 | 9.2 | 25.1 | 30.6 | 34.1 | 39.8 | 53.7 | 8.12 | Kd [2]: 0.017 nM; Efficacy (IL-2 production, BMS = 100%) [10]: 43.4%; RU [11]: 39 RU; RU [12]: 44.6 RU; RU [13]: 31.7 RU; RU [14]: 7.2 RU | B3
